Data as given in article PMC10786891, “Massively parallel profiling of RNA-targeting CRISPR-Cas13d”.
Changes are numbered by the printed parent chain. Numbers in names are those of the source.

T1: EsCas13d, nuclease-dead (Eubacterium siraeum, UniProt B0MS50, R295A;H300A;R849A;H854A)
T1 sequence: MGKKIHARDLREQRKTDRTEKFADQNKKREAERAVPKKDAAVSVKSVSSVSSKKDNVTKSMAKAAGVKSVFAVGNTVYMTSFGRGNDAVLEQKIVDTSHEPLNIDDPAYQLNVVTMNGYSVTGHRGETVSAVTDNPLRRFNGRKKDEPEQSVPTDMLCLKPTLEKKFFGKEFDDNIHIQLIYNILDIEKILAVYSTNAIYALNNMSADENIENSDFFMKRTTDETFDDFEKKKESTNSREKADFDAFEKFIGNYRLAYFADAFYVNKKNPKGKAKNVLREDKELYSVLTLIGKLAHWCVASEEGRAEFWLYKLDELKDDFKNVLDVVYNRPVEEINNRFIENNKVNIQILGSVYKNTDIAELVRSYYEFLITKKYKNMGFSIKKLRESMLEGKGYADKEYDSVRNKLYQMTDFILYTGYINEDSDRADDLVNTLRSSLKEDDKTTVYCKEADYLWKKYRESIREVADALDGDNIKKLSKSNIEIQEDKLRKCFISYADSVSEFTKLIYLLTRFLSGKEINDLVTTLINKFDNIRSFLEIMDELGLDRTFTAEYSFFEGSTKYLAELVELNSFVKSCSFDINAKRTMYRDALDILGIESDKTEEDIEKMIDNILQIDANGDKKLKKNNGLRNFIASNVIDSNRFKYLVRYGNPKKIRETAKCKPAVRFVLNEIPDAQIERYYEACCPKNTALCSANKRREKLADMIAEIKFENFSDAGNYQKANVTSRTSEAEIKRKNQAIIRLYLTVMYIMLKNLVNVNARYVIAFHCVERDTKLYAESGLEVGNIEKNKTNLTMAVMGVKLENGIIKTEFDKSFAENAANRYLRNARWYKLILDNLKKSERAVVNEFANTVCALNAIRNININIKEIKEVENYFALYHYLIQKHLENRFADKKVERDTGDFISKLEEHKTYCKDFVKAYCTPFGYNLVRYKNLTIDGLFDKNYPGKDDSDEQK

B1: target 1 MT 5'PFS AGG 3'PFS AGG (mixed)
RNA 1: CACCCGUGCAAAAAUGCAGGGGUCUAAAACUGAGCGGAUAACCUCUCUAUGG
RNA 2: GGGAAUGGAUCCACAUCUACGAAUUCAGGCCAUAGAGAGGUUAUCCGCUCAAGGAGAUCGGAAGAGCACACGU
B2: target 1 MT 5'PFS GUU 3'PFS AAG (mixed)
RNA 1: B1 RNA 1
RNA 2: B1 RNA 2 with A27G, G28U, G29U, G53A
B3: target 1 MT 5'PFS UAU 3'PFS UCG (mixed)
RNA 1: B1 RNA 1
RNA 2: B1 RNA 2 with A27U, G28A, G29U, A52U, G53C
B4: target 1 MT 5'PFS GGU 3'PFS CUA (mixed)
RNA 1: B1 RNA 1
RNA 2: B1 RNA 2 with A27G, G29U, A52C, G53U, G54A
B5: target 1 U10G,U19C (mixed)
RNA 1: B1 RNA 1
RNA 2: B1 RNA 2 with A27G, G28U, G29A, U33C, U42G, A52C, G53C
B6: target 1 MT 5'PFS CCG 3'PFS AGU (mixed)
RNA 1: B1 RNA 1
RNA 2: B1 RNA 2 with A27C, G28C, G54U
B7: target 1 MT 5'PFS GUU 3'PFS UCG (mixed)
RNA 1: B1 RNA 1
RNA 2: B1 RNA 2 with A27G, G28U, G29U, A52U, G53C
B8: target 1 MT 5'PFS GUU 3'PFS UCU (mixed)
RNA 1: B1 RNA 1
RNA 2: B1 RNA 2 with A27G, G28U, G29U, A52U, G53C, G54U
B9: target 1 MT 5'PFS UAG 3'PFS CAC (mixed)
RNA 1: B1 RNA 1
RNA 2: B1 RNA 2 with A27U, G28A, A52C, G53A, G54C
B10: target 1 G5A,C6A (mixed)
RNA 1: B1 RNA 1
RNA 2: B1 RNA 2 with A27G, G28U, G29A, C46A, G47A, A52C, G53C
B11: target 1 MT 5'PFS CCU 3'PFS ACG (mixed)
RNA 1: B1 RNA 1
RNA 2: B1 RNA 2 with A27C, G28C, G29U, G53C
B12: target 1 U8C,U11G (mixed)
RNA 1: B1 RNA 1
RNA 2: B1 RNA 2 with A27G, G28U, G29A, U41G, U44C, A52C, G53C
B13: target 1 MT 5'PFS UAU 3'PFS UCU (mixed)
RNA 1: B1 RNA 1
RNA 2: B1 RNA 2 with A27U, G28A, G29U, A52U, G53C, G54U
B14: target 1 MT 5'PFS GCA 3'PFS UGC (mixed)
RNA 1: B1 RNA 1
RNA 2: B1 RNA 2 with A27G, G28C, G29A, A52U, G54C
B15: target 1 MT 5'PFS CUG 3'PFS UCC (mixed)
RNA 1: B1 RNA 1
RNA 2: B1 RNA 2 with A27C, G28U, A52U, G53C, G54C
B16: target 1 MT 5'PFS UAG 3'PFS CAA (mixed)
RNA 1: B1 RNA 1
RNA 2: B1 RNA 2 with A27U, G28A, A52C, G53A, G54A
B17: target 1 MT 5'PFS CCU 3'PFS ACU (mixed)
RNA 1: B1 RNA 1
RNA 2: B1 RNA 2 with A27C, G28C, G29U, G53C, G54U
B18: target 1 MT 5'PFS GAA 3'PFS UAA (mixed)
RNA 1: B1 RNA 1
RNA 2: B1 RNA 2 with A27G, G28A, G29A, A52U, G53A, G54A
B19: target 1 MT 5'PFS GUU 3'PFS AAU (mixed)
RNA 1: B1 RNA 1
RNA 2: B1 RNA 2 with A27G, G28U, G29U, G53A, G54U
B20: target 1 MT 5'PFS GGC 3'PFS AAA (mixed)
RNA 1: B1 RNA 1
RNA 2: B1 RNA 2 with A27G, G29C, G53A, G54A
B21: target 1 MT 5'PFS GCA 3'PFS UGA (mixed)
RNA 1: B1 RNA 1
RNA 2: B1 RNA 2 with A27G, G28C, G29A, A52U, G54A
B22: target 1 MT 5'PFS GUU 3'PFS UCC (mixed)
RNA 1: B1 RNA 1
RNA 2: B1 RNA 2 with A27G, G28U, G29U, A52U, G53C, G54C
B23: target 1 MT 5'PFS GUU 3'PFS AAA (mixed)
RNA 1: B1 RNA 1
RNA 2: B1 RNA 2 with A27G, G28U, G29U, G53A, G54A
B24: target 1 insU 3' of 22,insC 3' of 22 (mixed)
RNA 1: B1 RNA 1
RNA 2: GGGAAUGGAUCCACAUCUACGAAUUCGUACUCCAUAGAGAGGUUAUCCGCUCACCGAGAUCGGAAGAGCACACGU
B25: target 1 MT 5'PFS AGA 3'PFS AUA (mixed)
RNA 1: B1 RNA 1
RNA 2: B1 RNA 2 with G29A, G53U, G54A
B26: target 1 MT 5'PFS GCA 3'PFS UGU (mixed)
RNA 1: B1 RNA 1
RNA 2: B1 RNA 2 with A27G, G28C, G29A, A52U, G54U
B27: target 1 MT 5'PFS CUG 3'PFS ACU (mixed)
RNA 1: B1 RNA 1
RNA 2: B1 RNA 2 with A27C, G28U, G53C, G54U
B28: target 1 MT 5'PFS AAG 3'PFS UGU (mixed)
RNA 1: B1 RNA 1
RNA 2: B1 RNA 2 with G28A, A52U, G54U
B29: target 1 MT 5'PFS GUG 3'PFS GUG (mixed)
RNA 1: B1 RNA 1
RNA 2: B1 RNA 2 with A27G, G28U, A52G, G53U
B30: target 1 MT 5'PFS ACA 3'PFS UUU (mixed)
RNA 1: B1 RNA 1
RNA 2: B1 RNA 2 with G28C, G29A, A52U, G53U, G54U
B31: target 1 MT 5'PFS GUU 3'PFS UCA (mixed)
RNA 1: B1 RNA 1
RNA 2: B1 RNA 2 with A27G, G28U, G29U, A52U, G53C, G54A
B32: target 1 MT 5'PFS GAA 3'PFS UAU (mixed)
RNA 1: B1 RNA 1
RNA 2: B1 RNA 2 with A27G, G28A, G29A, A52U, G53A, G54U
B33: target 1 MT 5'PFS GAA 3'PFS UAC (mixed)
RNA 1: B1 RNA 1
RNA 2: B1 RNA 2 with A27G, G28A, G29A, A52U, G53A, G54C
B34: target 1 MT 5'PFS CUG 3'PFS UCU (mixed)
RNA 1: B1 RNA 1
RNA 2: B1 RNA 2 with A27C, G28U, A52U, G53C, G54U
B35: target 1 MT 5'PFS UAG 3'PFS CAG (mixed)
RNA 1: B1 RNA 1
RNA 2: B1 RNA 2 with A27U, G28A, A52C, G53A
B36: target 1 MT 5'PFS GGC 3'PFS AAU (mixed)
RNA 1: B1 RNA 1
RNA 2: B1 RNA 2 with A27G, G29C, G53A, G54U
B37: target 1 MT 5'PFS UAG 3'PFS CAU (mixed)
RNA 1: B1 RNA 1
RNA 2: B1 RNA 2 with A27U, G28A, A52C, G53A, G54U
B38: target 1 MT 5'PFS AGA 3'PFS AUC (mixed)
RNA 1: B1 RNA 1
RNA 2: B1 RNA 2 with G29A, G53U, G54C
B39: target 1 MT 5'PFS GGC 3'PFS AAC (mixed)
RNA 1: B1 RNA 1
RNA 2: B1 RNA 2 with A27G, G29C, G53A, G54C
B40: target 1 MT 5'PFS AAG 3'PFS UGC (mixed)
RNA 1: B1 RNA 1
RNA 2: B1 RNA 2 with G28A, A52U, G54C

target: T1, EsCas13d, nuclease-dead; experiment: crRNA (strand 1, pre-loaded); Mg2+; 40 mM Tris-HCl pH 7.5, 150 mM NaCl, 6 mM MgCl2, 1 mM DTT, 0.1% Tween-20, 0.2 mg/ml BSA; 25 C; 10 min per concentration, then washed; details: tags: His6-TwinStrep-SUMO cleaved; N-terminal SNAP kept (SNAP-Surface 488); label: 3' end held by stalled T7 RNA polymerase

Q: B1 was tested. Which Kd did it give?
A: Its Kd is ~110 nM.

Q: Which Kd does the source give for B2 here?
A: The Kd was 37.5 ± 8.5 nM.

Q: How did the Kd turn out when B3 was run?
A: Its Kd is 29 ± 7 nM.

Q: Which Kd does the source give for B4 here?
A: Its Kd is 64.5 ± 27.5 nM.

Q: How did the Kd turn out when B5 was run?
A: The Kd was 48 ± 8 nM.

Q: Which Kd does the source give for B6 here?
A: The Kd was 10 ± 4.5 nM.

Q: For B7, which Kd is on record?
A: Its Kd is 18.5 ± 2.7 nM.

Q: How did the Kd turn out when B8 was run?
A: The Kd was 12.7 ± 1.4 nM.

Q: For B9, which Kd is on record?
A: Its Kd is ~43 nM.

Q: B10 was tested. Which Kd did it give?
A: Its Kd is 5.75 ± 0.22 nM.

Q: How did the Kd turn out when B11 was run?
A: Its Kd is 21 ± 6 nM.

Q: B12 was tested. Which Kd did it give?
A: Its Kd is 27 ± 2.5 nM.

Q: Which Kd does the source give for B13 here?
A: The Kd was 32 ± 6.5 nM.

Q: Which Kd does the source give for B14 here?
A: The Kd was 15.8 ± 2.95 nM.

Q: How did the Kd turn out when B15 was run?
A: Its Kd is 4.75 ± 1.1 nM.

Q: Which Kd does the source give for B16 here?
A: The Kd was 51 ± 11 nM.

Q: For B17, which Kd is on record?
A: The Kd was 16.5 ± 5.5 nM.

Q: For B18, which Kd is on record?
A: The Kd was 23 ± 7.5 nM.

Q: With B19 as the binder, how does the Kd read?
A: The Kd was 22 ± 4.5 nM.

Q: For B20, which Kd is on record?
A: Its Kd is 52 ± 14 nM.

Q: For B21, which Kd is on record?
A: Its Kd is 16.4 ± 2.25 nM.

Q: Which Kd does the source give for B22 here?
A: The Kd was 14.8 ± 3.65 nM.

Q: B23 was tested. Which Kd did it give?
A: Its Kd is 46.5 ± 13.5 nM.

Q: For B24, which Kd is on record?
A: The Kd was 31.6 ± 1.2 nM.

Q: How did the Kd turn out when B25 was run?
A: Its Kd is 45 ± 15 nM.

Q: For B26, which Kd is on record?
A: The Kd was 35 ± 7.5 nM.

Q: With B27 as the binder, how does the Kd read?
A: The Kd was 5.55 ± 1.45 nM.

Q: B28 was tested. Which Kd did it give?
A: Its Kd is 35.5 ± 10.5 nM.

Q: B29 was tested. Which Kd did it give?
A: The Kd was 8.9 ± 0.55 nM.

Q: B30 was tested. Which Kd did it give?
A: The Kd was 5.35 ± 1.15 nM.

Q: For B31, which Kd is on record?
A: Its Kd is 15.6 ± 2.1 nM.

Q: With B32 as the binder, how does the Kd read?
A: Its Kd is 27.5 ± 6 nM.

Q: With B33 as the binder, how does the Kd read?
A: The Kd was 40 ± 11 nM.

Q: Which Kd does the source give for B34 here?
A: Its Kd is 3.55 ± 0.8 nM.

Q: B35 was tested. Which Kd did it give?
A: The Kd was 42.5 ± 13 nM.

Q: With B36 as the binder, how does the Kd read?
A: The Kd was 44.5 ± 18.5 nM.

Q: How did the Kd turn out when B37 was run?
A: The Kd was 65 ± 21 nM.

Q: With B38 as the binder, how does the Kd read?
A: Its Kd is 49 ± 17 nM.

Q: With B39 as the binder, how does the Kd read?
A: Its Kd is 39 ± 13.5 nM.

Q: For B40, which Kd is on record?
A: The Kd was 51.5 ± 25 nM.
